One substance from PMC3142614 can be followed below.

The target in this assay is recombinant AvrM-A Δ28 with an N-terminal hexahistidine tag (Melampsora lini (flax rust)). In words: SEC-MALS.

Turning to “recombinant AvrM-A Δ28 with an N-terminal hexahistidine tag (natural protein)”, the stoichiometry N turned out to be 2.
